We go through one molecule from patent publication US20250051407A1, “De novo designed sequence-specific DNA binding proteins” (University of Washington, priority 2023, published 2025).

For test [1], the system named is 13 unique dsDNA targets. Nature of the test: All-by-all yeast surface display screen of DBP design hits. In kind it is binding. The procedure, abridged:
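EBY100 yeast displaying designs were induced 16–24 h at 30°C, then labelled with biotinylated dsDNA either with avidity (SAPE premixed at one-quarter of target concentration) or without (target, then SAPE/FITC). Competition ran without avidity at 1 μM biotinylated duplex plus 8 μM unlabelled competitor. Flow cytometry read-out is the SAPE/FITC ratio over gated expressing cells.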

The subject of test [2] is synTF-specific cis-regulatory elements (CRE) in HEK293T cells. The experiment in a line: Transcriptional activation by synTFs in HEK293T cells (ENGRAM). The test is classed as cell-based. Particulars: DBP fused to GCN4 dimerization domain and VP64; HEK293T cells expressing PEmax; dependent on spacing between motifs. The procedure, abridged: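 GCN4–VP64 fusions were co-transfected into PEmax-expressing HEK293T cells with barcoded pegRNA recorders driven by CREs of 4 palindromic repeats (spacings 1, 3 or 5 bp), with a TCF-LEF recorder as control (ratio 2:2:2:1). After 2 days, the HEK3 DNA TAPE was sequenced. Activation is given as barcode fold change versus control, in triplicate.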

In test [3] the test system is biotinylated target dsDNA with non-biotinylated competitor dsDNA. The experiment in a line: Yeast display competition assay with base-substituted competitor dsDNA. In kind it is binding. The settings on record: all possible base mutations at each position of the competitor oligo.

B1: DBP48: designed DNA-binding protein, SEQ ID NO: 22, DNA target D (protein)
chain: MTPEEIAEAKRIGKEVKERRKELGLTQRELAEKLGVSRSTVSDIENGRRLPSEELLKKIKEILGV
Consider B1, for which the “Number of the 13 tested DNA target sequences preferentially bound” value in test [1] (1 μM dsDNA with avidity, including designed target sequence) is “less than 3”. Further, in test [1] (all-by-all screen with Rosetta-predicted motifs), the “Binding specificity versus design models” value is “bound with specificity closely consistent with the design models”. Besides, the “Binding to initial design target” value in test [1] (yeast surface display, 1 μM dsDNA with avidity) is on record as “bound weakly”. Moreover, the “Binding to alternate target sequence” value in test [1] (yeast surface display, 1 μM dsDNA with avidity, alternate target H (DBP90), D (DBP48), C (DBP57)) was “strongly”. The “Fold activation of synTFs measured as normalized barcode abundance in the DNA TAPE” value in test [2] was “didn't show detectable activation”. The “DNA binding site specificity” value in test [3] is recorded as “specificities consistent with the designed sidechain-base interactions”.
